Experimental data from publication PMC6522505.

Target: secCl (CG7589), Cys-loop ligand-gated ion channel subunit (Drosophila melanogaster)

CG6927, Cys-loop ligand-gated ion channel subunit (natural protein)
shift in reversal potential in low chloride buffer, Xenopus oocytes co-expressing secCl and CG6927: 53 mV
